The record followed here is article PMC11514443 (Structure (London, England : 1993), 2019).

By Kd is commonly meant the concentration at which binding is half-saturated.

This assay deals with MORC3-CW E431A mutant (human) (UniProt Q14149). The experiment in a line: other fluorescence titration.
MORC3-CW E431A mutant (human), sequence (Q14149 401-455 E431A): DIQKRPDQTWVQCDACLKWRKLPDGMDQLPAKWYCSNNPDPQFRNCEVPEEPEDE

In turn, “NS1 peptide trimethylated at K229 (residues 222-230 of NS1)” registered a Kd of 57 µM.
